Results from paper PMC11607428, “Broadly conserved FlgV controls flagellar assembly and Borrelia burgdorferi dissemination in mice” (Nature Communications, 2024).

Molecular target: the molecule itself
Experiment: immunoblot after SDS-PAGE (higher molecular weight band); total protein lysate of WT/pcon ++flgV (PA267) B. burgdorferi, log and stationary phase, boiled in Laemmli buffer with beta-mercaptoethanol, Tris-Glycine gel, probed with anti-FlgV

B1: FlgV (BB0268), B. burgdorferi (natural protein)
chain: MFISRELKYILLTSVSALFISAVLGLFCGLSFFTILVRSLLQFVFFFVIGLLIEYIFKKYLSNLFSTELSGNMENKPQDDKKSDKDFKENLDFQNKNSLYENSQNISSSGDFIEEVKKYKFETEDVSRGSDKNKKMSFIEDNDPKVVADAIKTLMSKKE
notes: FlgV (BB0268) of Borrelia burgdorferi B31; ORF of 480 bp; antigen for the antibody was amino acids 58-159; two predicted transmembrane helices (amino acids 13 to 35 and 40 to 57); native flgV ORF amplified from B. burgdorferi A3 genomic DNA for the overexpression plasmid; Untagged protein; Strains, plasmids and primers are in Supplementary Data 1; also called bb0268 gene product; previously …
  stoichiometry N: 2
